Data reported in article PMC2673426.

Legend:
hSBP2 (Homo sapiens) = target: T1, hSBP2 (Homo sapiens) (UniProt Q96T21); assay: EMSA
T1 sequence: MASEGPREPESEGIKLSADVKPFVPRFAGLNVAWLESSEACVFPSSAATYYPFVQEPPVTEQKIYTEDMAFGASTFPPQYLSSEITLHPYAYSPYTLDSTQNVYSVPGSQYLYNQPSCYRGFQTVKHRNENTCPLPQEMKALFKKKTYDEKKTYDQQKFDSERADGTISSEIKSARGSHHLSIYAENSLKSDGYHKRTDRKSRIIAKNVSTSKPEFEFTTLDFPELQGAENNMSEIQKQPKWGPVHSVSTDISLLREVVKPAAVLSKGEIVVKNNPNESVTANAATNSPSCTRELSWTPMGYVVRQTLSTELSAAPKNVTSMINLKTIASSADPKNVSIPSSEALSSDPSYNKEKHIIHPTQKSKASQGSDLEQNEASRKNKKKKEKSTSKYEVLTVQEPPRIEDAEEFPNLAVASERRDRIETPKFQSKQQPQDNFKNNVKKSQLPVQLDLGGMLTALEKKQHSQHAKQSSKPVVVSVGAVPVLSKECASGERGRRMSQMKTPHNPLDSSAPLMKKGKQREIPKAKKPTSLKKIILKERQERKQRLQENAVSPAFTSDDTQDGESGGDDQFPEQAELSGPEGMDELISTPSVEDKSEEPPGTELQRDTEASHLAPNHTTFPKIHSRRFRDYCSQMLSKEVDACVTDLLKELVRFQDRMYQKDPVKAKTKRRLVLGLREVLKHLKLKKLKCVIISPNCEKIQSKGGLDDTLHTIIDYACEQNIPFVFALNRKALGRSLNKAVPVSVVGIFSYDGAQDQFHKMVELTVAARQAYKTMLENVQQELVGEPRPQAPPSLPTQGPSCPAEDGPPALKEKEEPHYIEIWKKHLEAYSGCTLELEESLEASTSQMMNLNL

[1] = target: T2, dSBP2 (Drosophila melanogaster) (UniProt Q9VSH1); assay: EMSA
T2 sequence: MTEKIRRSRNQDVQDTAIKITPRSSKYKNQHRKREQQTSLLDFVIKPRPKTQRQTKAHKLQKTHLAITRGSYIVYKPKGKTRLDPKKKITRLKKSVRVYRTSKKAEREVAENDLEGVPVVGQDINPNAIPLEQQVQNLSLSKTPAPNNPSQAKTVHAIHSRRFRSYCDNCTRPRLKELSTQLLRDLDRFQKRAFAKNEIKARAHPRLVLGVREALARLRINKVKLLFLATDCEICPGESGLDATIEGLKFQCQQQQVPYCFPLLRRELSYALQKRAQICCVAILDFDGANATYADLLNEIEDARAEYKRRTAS

Substance	Kd (hSBP2 (Homo sapiens)) [nM]	Kd [1] [nM]
GPx1 SECIS (form 1)	400	
dSelH SECIS (form 2)		170
dSelK SECIS (form 2)		260
